Data set [1] has as its target T1, low-specificity Escherichia coli L-threonine aldolase (eTA) (Escherichia coli, UniProt P75823). Put plainly: X-ray crystal structure, […] Å. The conditions noted are these: covalent, internal aldimine with Lys197; 1:1 per subunit. In kind it is binding.
The target in data set [2] is T1, low-specificity Escherichia coli L-threonine aldolase (eTA). The data set can be described thus: X-ray crystal structure, […] Å, co-crystallised with L-serine. It is filed as binding. The conditions noted are these: covalent, external aldimine with PLP; partial occupancy.
Substrate in data set [3]: C[C@@H](O)[C@H](N)C(=O)O
Put plainly: purified protein. It is filed as biochemical, Escherichia coli. The conditions noted are these: 20 mM potassium phosphate, pH 7.0, 30 °C, retro-aldol cleavage.

Substrate in data set [4]: C[C@H](O)[C@H](N)C(=O)O
Put plainly: purified protein. It is filed as biochemical, Escherichia coli. The conditions noted are these: 20 mM potassium phosphate, pH 7.0, 30 °C, retro-aldol cleavage.

This is an account of results in paper PMC4366684 (The FEBS journal, 2013).

Turning to `Cc1ncc(COP(=O)(O)O)c(C=O)c1O` [PLP], in data set [1], the “X-ray crystal structure, 2.2 Å” value was “PLP bound at their interface, forming a Schiff base (internal aldimine) with the conserved Lys197”.
As to `NCC(=O)O` [glycine], the “X-ray crystal structure, 2.2 Å, co-crystallised with L-serine” value in data set [2] is on record as “external aldimine with glycine (in which the C4’ is bound to the amino group”.

B1: low-specificity Escherichia coli L-threonine aldolase (eTA) (Escherichia coli K-12) (protein)
chain: MIDLRSDTVTRPSRAMLEAMMAAPVGDDVYGDDPTVNALQDYAAELSGKEAAIFLPTGTQANLVALLSHCERGEEYIVGQAAHNYLFEAGGAAVLGSIQPQPIDAAADGTLPLDKVAMKIKPDDIHFARTKLLSLENTHNGKVLPREYLKEAWEFTRERNLALHVDGARIFNAVVAYGCELKEITQYCDSFTICLSKGLGTPVGSLLVGNRDYIKRAIRWRKMTGGGMRQSGILAAAGIYALKNNVARLQEDHDNAAWMAEQLREAGADVMRQDTNMLFVRVGEENAAALGEYMKARNVLINASPIVRLVTHLDVSREQLAEVAAHWRAFLAR
For orientation: Km means the concentration of substrate that gives half-maximal velocity. In general, kcat refers to the maximal rate divided by the concentration of active sites. As a reminder, the kcat/Km is the turnover number divided by the Michaelis constant. For B1, in the data set “purified protein [3]”, the Km is 19400 µM, the kcat was determined as 1.87 s⁻¹ and the kcat/Km is 96.7 M⁻¹ s⁻¹. In the data set “purified protein [4]”, the Michaelis-Menten constant (Km) is 240 µM, the kcat was 3.55 s⁻¹ and the kcat/Km was 14800 M⁻¹ s⁻¹.

B2: low-specificity Escherichia coli L-threonine aldolase (eTA) (Escherichia coli K-12; H126F) (protein)
chain: MIDLRSDTVTRPSRAMLEAMMAAPVGDDVYGDDPTVNALQDYAAELSGKEAAIFLPTGTQANLVALLSHCERGEEYIVGQAAHNYLFEAGGAAVLGSIQPQPIDAAADGTLPLDKVAMKIKPDDIFFARTKLLSLENTHNGKVLPREYLKEAWEFTRERNLALHVDGARIFNAVVAYGCELKEITQYCDSFTICLSKGLGTPVGSLLVGNRDYIKRAIRWRKMTGGGMRQSGILAAAGIYALKNNVARLQEDHDNAAWMAEQLREAGADVMRQDTNMLFVRVGEENAAALGEYMKARNVLINASPIVRLVTHLDVSREQLAEVAAHWRAFLAR
As to B2, in “purified protein [4]”, the Km was 200 µM, the kcat was 9.02 s⁻¹ and the specificity constant (kcat/Km) was 45100 M⁻¹ s⁻¹.

B3: low-specificity Escherichia coli L-threonine aldolase (eTA) (Escherichia coli K-12; F87D) (protein)
chain: MIDLRSDTVTRPSRAMLEAMMAAPVGDDVYGDDPTVNALQDYAAELSGKEAAIFLPTGTQANLVALLSHCERGEEYIVGQAAHNYLDEAGGAAVLGSIQPQPIDAAADGTLPLDKVAMKIKPDDIHFARTKLLSLENTHNGKVLPREYLKEAWEFTRERNLALHVDGARIFNAVVAYGCELKEITQYCDSFTICLSKGLGTPVGSLLVGNRDYIKRAIRWRKMTGGGMRQSGILAAAGIYALKNNVARLQEDHDNAAWMAEQLREAGADVMRQDTNMLFVRVGEENAAALGEYMKARNVLINASPIVRLVTHLDVSREQLAEVAAHWRAFLAR
As to B3, in the data set “purified protein [4]”, the Km is 410 µM, the kcat amounted to 1.95 s⁻¹ and the kcat/Km is 4750 M⁻¹ s⁻¹.

B4: low-specificity Escherichia coli L-threonine aldolase (eTA) (Escherichia coli K-12; F87A) (protein)
chain: MIDLRSDTVTRPSRAMLEAMMAAPVGDDVYGDDPTVNALQDYAAELSGKEAAIFLPTGTQANLVALLSHCERGEEYIVGQAAHNYLAEAGGAAVLGSIQPQPIDAAADGTLPLDKVAMKIKPDDIHFARTKLLSLENTHNGKVLPREYLKEAWEFTRERNLALHVDGARIFNAVVAYGCELKEITQYCDSFTICLSKGLGTPVGSLLVGNRDYIKRAIRWRKMTGGGMRQSGILAAAGIYALKNNVARLQEDHDNAAWMAEQLREAGADVMRQDTNMLFVRVGEENAAALGEYMKARNVLINASPIVRLVTHLDVSREQLAEVAAHWRAFLAR
Turning to B4, in “purified protein [4]”, the Km was 310 µM, the turnover number (kcat) is 2.67 s⁻¹ and the kcat/Km stood at 8600 M⁻¹ s⁻¹.

B5: low-specificity Escherichia coli L-threonine aldolase (eTA) (Escherichia coli K-12; H126N) (protein)
chain: MIDLRSDTVTRPSRAMLEAMMAAPVGDDVYGDDPTVNALQDYAAELSGKEAAIFLPTGTQANLVALLSHCERGEEYIVGQAAHNYLFEAGGAAVLGSIQPQPIDAAADGTLPLDKVAMKIKPDDINFARTKLLSLENTHNGKVLPREYLKEAWEFTRERNLALHVDGARIFNAVVAYGCELKEITQYCDSFTICLSKGLGTPVGSLLVGNRDYIKRAIRWRKMTGGGMRQSGILAAAGIYALKNNVARLQEDHDNAAWMAEQLREAGADVMRQDTNMLFVRVGEENAAALGEYMKARNVLINASPIVRLVTHLDVSREQLAEVAAHWRAFLAR
In the case of B5, in “purified protein [4]”, the Km turned out to be 960 µM, the kcat stood at 7.82 s⁻¹ and the kcat/Km amounted to 8130 M⁻¹ s⁻¹.

B6: low-specificity Escherichia coli L-threonine aldolase (eTA) (Escherichia coli K-12; K222A) (protein)
chain: MIDLRSDTVTRPSRAMLEAMMAAPVGDDVYGDDPTVNALQDYAAELSGKEAAIFLPTGTQANLVALLSHCERGEEYIVGQAAHNYLFEAGGAAVLGSIQPQPIDAAADGTLPLDKVAMKIKPDDIHFARTKLLSLENTHNGKVLPREYLKEAWEFTRERNLALHVDGARIFNAVVAYGCELKEITQYCDSFTICLSKGLGTPVGSLLVGNRDYIKRAIRWRAMTGGGMRQSGILAAAGIYALKNNVARLQEDHDNAAWMAEQLREAGADVMRQDTNMLFVRVGEENAAALGEYMKARNVLINASPIVRLVTHLDVSREQLAEVAAHWRAFLAR
For B6, in the data set “purified protein [4]”, the Michaelis constant (Km) worked out at 1200 µM, the kcat was found to be 1.33 s⁻¹ and the kcat/Km was determined as 1120 M⁻¹ s⁻¹.
